Assay results from patent US20250250314A1 (XILIO DEVELOPMENT, published 2025).
Substitutions are numbered along the chain they refer to.

Molecular target: PD-1 from the PD-1 effector cells (UniProt Q15116 25-288, limits assumed)
Experiment: cell-based or functional assay

Chain of PD-1 from the PD-1 effector cells (Q15116 25-288 limits assumed): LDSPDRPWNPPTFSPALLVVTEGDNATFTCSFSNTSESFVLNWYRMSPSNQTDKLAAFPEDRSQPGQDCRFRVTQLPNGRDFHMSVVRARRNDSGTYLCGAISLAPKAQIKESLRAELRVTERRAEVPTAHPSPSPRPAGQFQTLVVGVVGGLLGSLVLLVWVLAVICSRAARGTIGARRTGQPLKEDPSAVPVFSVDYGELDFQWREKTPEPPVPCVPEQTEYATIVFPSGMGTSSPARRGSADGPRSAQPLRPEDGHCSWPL

B1: UCM5 (other)
heavy 1: QVQLVQSGVEVKKPGASVKVSCKASGYTFTNYYMYWVRQAPGQGLEWMGGINPSNGGTNFNEKFKNRVTLTTDSSTTTAYMELKSLQFDDTAVYYCARRDYRFDMGFDYWGQGTTVTVSSASTKGPSVFPLAPSSKSTSGGTAALGCLVKDYFPEPVTVSWNSGALTSGVHTFPAVLQSSGLYSLSSVVTVPSSSLGTQTYICNVNHKPSNTKVDKKVEPKSCDKTHTCPPCPAPELLGGPSVFLFPPKPKDTLMISRTPEVTCVVVDVSHEDPEVKFNWYVDGVEVHNAKTKPREEQYASTYRVVSVLTVLHQDWLNGKEYKCKVSNKALPAPIEKTISKAKGQPREPQVYTLPPCRDELTKNQVSLWCLVKGFYPSDIAVEWESNGQPENNYKTTPPVLDSDGSFFLYSKLTVDKSRWQQGNVFSCSVMHEALHNRFTQKSLSLSPGGGSSPPGGGSSGGGSGPAPTSSSTKKTQLQLEHLLLDLQMILNGINNYKNPKLTAMLTAKFAMPKKATELKHLQCLEEALKPLEEVLNLAQSKNFHLRPRDLISNINVIVLELKGSETTFMCEYADETATIVEFLNRWITFAQSIISTLT
heavy 2: QVQLVQSGVEVKKPGASVKVSCKASGYTFTNYYMYWVRQAPGQGLEWMGGINPSNGGTNFNEKFKNRVTLTTDSSTTTAYMELKSLQFDDTAVYYCARRDYRFDMGFDYWGQGTTVTVSSASTKGPSVFPLAPSSKSTSGGTAALGCLVKDYFPEPVTVSWNSGALTSGVHTFPAVLQSSGLYSLSSVVTVPSSSLGTQTYICNVNHKPSNTKVDKKVEPKSCDKTHTCPPCPAPELLGGPSVFLFPPKPKDTLMISRTPEVTCVVVDVSHEDPEVKFNWYVDGVEVHNAKTKPREEQYASTYRVVSVLTVLHQDWLNGKEYKCKVSNKALPAPIEKTISKAKGQPREPQVCTLPPSRDELTKNQVSLSCAVKGFYPSDIAVEWESNGQPENNYKTTPPVLDSDGSFFLVSKLTVDKSRWQQGNVFSCSVMHEALHNHYTAPAGLIVPYNGGSSGSGGSGGGSGSGGGEVQLVESGGGLVQPGGSLRLSCAASGSIFSINVMGWYRQAPGKQRELVAAISSGGSTNYADSVKGRFTISRDNAKNTVYLQMNSLKPEDTAVYYCMYASSWYEDETDYWGQGTQVTVSS
light: EIVLTQSPATLSLSPGERATLSCRASKGVSTSGYSYLHWYQQKPGQAPRLLIYLASYLESGVPARFSGSGSGTDFTLTISSLEPEDFAVYYCQHSRDLPLTFGGGTKVEIKRTVAAPSVFIFPPSDEQLKSGTASVVCLLNNFYPREAKVQWKVDNALQSGNSQESVTEQDSKDSTYSLSSTLTLSKADYEKHKVYACEVTHQGLSSPVTKSFNRGEC
EC50 (nM), fold induction of luminescence in the PD-1/PD-L1 Blockade Bioassay: 1.15 nM

B2: UCM6 (other)
heavy 1: B1 heavy 1
heavy 2: B1 heavy 2 with A441P, P442A, A443N, G444L, L445V, I446A, V447P, P448D, Y449P, N450G
light: B1 light
EC50 (nM), fold induction of luminescence in the PD-1/PD-L1 Blockade Bioassay: 1.2 nM
